Measured values as given in PMC8244335 (Current Research in Structural Biology, 2019).
Where “and” joins values, the source holds several entries; their conditions need not be identical. Identical values can stand only once.

Target: the molecule itself
Assay: AUC

B1: catalytically inactive S679A mutant of Escherichia coli (strain K12) LonA protease, full length (enzyme, E. coli (strain K12), UniProt P0A9M0 1-784, looked up)
chain: MNPERSERIEIPVLPLRDVVVYPHMVIPLFVGREKSIRCLEAAMDHDKKIMLVAQKEASTDEPGVNDLFTVGTVASILQMLKLPDGTVKVLVEGLQRARISALSDNGEHFSAKAEYLESPTIDEREQEVLVRTAISQFEGYIKLNKKIPPEVLTSLNSIDDPARLADTIAAHMPLKLADKQSVLEMSDVNERLEYLMAMMESEIDLLQVEKRIRNRVKKQMEKSQREYYLNEQMKAIQKELGEMDDAPDENEALKRKIDAAKMPKEAKEKAEAELQKLKMMSPMSAEATVVRGYIDWMVQVPWNARSKVKKDLRQAQEILDTDHYGLERVKDRILEYLAVQSRVNKIKGPILCLVGPPGVGKTSLGQSIAKATGRKYVRMALGGVRDEAEIRGHRRTYIGSMPGKLIQKMAKVGVKNPLFLLDEIDKMSSDMRGDPASALLEVLDPEQNVAFSDHYLEVDYDLSDVMFVATSNSMNIPAPLLDRMEVIRLSGYTEDEKLNIAKRHLLPKQIERNALKKGELTVDDSAIIGIIRYYTREAGVRGLEREISKLCRKAVKQLLLDKSLKHIEINGDNLHDYLGVQRFDYGRADNENRVGQVTGLAWTEVGGDLLTIETACVPGKGKLTYTGSLGEVMQESIQAALTVVRARAEKLGINPDFYEKRDIHVHVPEGATPKDGPAAGIAMCTALVSCLTGNPVRADVAMTGEITLRGQVLPIGGLKEKLLAAHRGGIKTVLIPFENKRDLEEIPDNVIADLDIHPVKRIEEVLTLALQNEPSGMQVVTAK
stoichiometry N: 12 and 6
